Consider 2 substances from PMC4703389.

One test has as its target 7D8-E345K (human). In words: dynamic light scattering; 7D8 and mutants in PBS pH 7.4 up to 100 mg/mL, 25°C; linear regression of diffusion coefficient versus antibody concentration; self-association.
The next test has as its target 7D8-E430G (human). The test is described as above.

7D8-E345K (antibody): in the test with 7D8-E345K (human), the interaction parameter from regression of the diffusion coefficient versus concentration was -0.0174 mL/g. Substance 7D8-E430G (antibody) yielded an interaction parameter from regression of the diffusion coefficient versus concentration with 7D8-E430G (human) of -0.0126 mL/g.
